# Test results from patent US8409836B2, “Treatment of cellulosic material and enzymes useful therein” (Roal Oy, priority 2005, dated 2013).
# B1: EGII: endoglucanase II (Cel5A) of T. reesei, reference enzyme (protein, UniProt P07982 22-418, looked up)
# Endoglucanase EG-II: QQTVWGQCGGIGWSGPTNCAPGSACSTLNPYYAQCIPGATTITTSTRPPSGPTTTTRATSTSSSTPPTSSGVRFAGVNIAGFDFGCTTDGTCVTSKVYPPLKNFTGSNNYPDGIGQMQHFVNEDGMTIFRLPVGWQYLVNNNLGGNLDSTSISKYDQLVQGCLSLGAYCIVDIHNYARWNGGIIGQGGPTNAQFTSLWSQLASKYASQSRVWFGIMNEPHDVNINTWAATVQEVVTAIRNAGATSQFISLPGNDWQSAGAFISDGSAAALSQVTNPDGSTTNLIFDVHKYLDSDNSGTHAECTTNNIDGAFSPLATWLRQNNRQAILTETGGGNVQSCIQDMCQQIQYLNQNSDVYLGYVGWGAGSFDSTYVLTETPTSSGNSWTDTSLVSSCLARK
# B2: Ct EG_54: endoglucanase of Chaetomium thermophilum ALKO4261, gene Ct cel7B, amino acid SEQ ID NO: 16 (protein)
# chain: MTRKFALVPLLLGLASAQKPGNTPEVHPKITTYRCSHRQGCRPETNYIVLDSLTHPVHQLNSNANCGDWGNPPPRSVCPDVETCAQNCIMEGIQDYSTYGVTTSGSSLRLKQIHQGRVTSPRVYLLDKTEQQYEMMRLTGFEFTFDVDTTKLPCGMNAALYLSEMDATGARSRLNPGGAYYGTGYCDAQCFVTPFINGIGNIEGKGSCCNEMDIWEANSRSQSIAPHPCNKQGLYMCSGQECEFDGVCDEWGCTWNPYKVNVTDYYGRGPQFKVDTTRPFTVITQFPADQNGKLTSIHRMYVQDGKLIEAHTVNLPGYPQVNALNDDFCRATGAATKYLELGATAGMGEALRRGMVLAMSIWWDESGFMNWLDSGESGPCNPNEGNPQNIRQIEPEPEVTYSNLRWGEIGSTYKHNLKGGWTGRN
# B3: Ta Cel7A + Ct CBD: Thermoascus aurantiacus Cel7A fused to linker and CBD of Chaetomium thermophilum Cel7A, SEQ ID NO: 30 (protein)
# chain: MYQRALLFSFFLAAARAQQAGTVTAENHPSLTWQQCSSGGSCTTQNGKVVIDANWRWVHTTSGYTNCYTGNTWDTSICPDDVTCAQNCALDGADYSGTYGVTTSGNALRLNFVTQSSGKNIGSRLYLLQDDTTYQIFKLLGQEFTFDVDVSNLPCGLNGALYFVAMDADGGLSKYPGNKAGAKYGTGYCDSQCPRDLKFINGQANVEGWQPSANDPNAGVGNHGSCCAEMDVWEANSISTAVTPHPCDTPGQTMCQGDDCGGTYSSTRYAGTCDPDGCDFNPYRQGNHSFYGPGQIVDTSSKFTVVTQFITDDGTPSGTLTEIKRFYVQNGKVIPQSESTISGVTGNSITTEYCTAQKAAFGDNTGFFTHGGLQKISQALAQGMVLVMSLWDDHAANMLWLDSTYPTDADPDTPGVARGTCPTTSGVPADVESQYPNSYVIYSNIKVGPIGSTVPGLDGSNPGNPTTTVVPPASTSTSRPTSSTSSPVSTPTGQPGGCTTQKWGQCGGIGYTGCTNCVAGTTCTQLNPWYSQCL
# B4: EGI: endoglucanase I (Cel7B) of T. reesei, reference enzyme (protein, UniProt P07981 23-459, looked up)
# Endoglucanase EG-1: QQPGTSTPEVHPKLTTYKCTKSGGCVAQDTSVVLDWNYRWMHDANYNSCTVNGGVNTTLCPDEATCGKNCFIEGVDYAASGVTTSGSSLTMNQYMPSSSGGYSSVSPRLYLLDSDGEYVMLKLNGQELSFDVDLSALPCGENGSLYLSQMDENGGANQYNTAGANYGSGYCDAQCPVQTWRNGTLNTSHQGFCCNEMDILEGNSRANALTPHSCTATACDSAGCGFNPYGSGYKSYYGPGDTVDTSKTFTIITQFNTDNGSPSGNLVSITRKYQQNGVDIPSAQPGGDTISSCPSASAYGGLATMGKALSSGMVLVFSIWNDNSQYMNWLDSGNAGPCSSTEGNPSNILANNPNTHVVFSNIRWGDIGSTTNSTAPPPPPASSTTFSTTRRSSTTSSSPSCTQTHWGQCGGIGYSGCKTCTSGTTCQYSNDYYSQCL
# Experiments:
# [1] = Hydrolysis with endoglucanase preparations, spruce; format: biochemical; details: 48 h, 45° C., pH 5.0
# Procedure: (§1) The preparations containing the endoglucanases were compared in hydrolysis studies mixed with the purified CBH/Cel7 and CBH/Cel6 enzymes on several pre-treated substrates. Culture filtrates of T. reesei, containing different cloned endoglucanase enzymes were obtained as described in Example 19. The enzymes were enriched by removing thermolabile proteins from the mixtures by a heat treatment (60° C., 2 h, pH 5) and the supernatant was used for the hydrolysis studies. In addition, pure T. reesei cellulases (purified as described by Suurnäkki et al., 2000) were used in the enzyme mixtures. The endoglucanases used in the experiment were:
# Washed steam pre-treated spruce fibre (impregnation with 3% SO2 for 20 min, followed by steam pre-treatment at 215° C. for 5 min), dry matter 25.9% (SPRUCE).
# (§2) The endoglucanases to be studied (dosage 840 nkat/g dry matter, based on endoglucanase activity against HEC according to IUPAC, 1987) were used either with cellobiohydrolases of T. reesei (CBHI/Cel7A, 8.1 mg/g d.m. and CBHII/Cel6A, 2.0 mg/g d.m.) or with Thermoascus aurantiacus Cel7A with genetically attached CBD of T. reesei (10.1 mg/g d.m.). Purified (Suurnäkki et al., 2000) EGI (Cel7B) and EGII (Cel5A) of T. reesei were also included in the experiments for comparison. All mixtures were supplemented with additional β-glucosidase from Novozym 188 (to make the total β-glucosidase dosage 560 nkat/g d.w., the relatively high dosage was used to compensate the differences in the background activities of the different EG preparations). Triplicate tubes were incubated in mixing at 45° C. for 48 h and reference samples with inactivated enzymes and corresponding substrates were prepared. The release of hydrolysis products was measured as reducing sugars with DNS method using glucose as standard (Table 31).
# [2] = Hydrolysis with endoglucanase preparations, corn stover; format: biochemical; details: 48 h, 45° C., pH 5.0
# Procedure: as §1
# Steam exploded corn stover fibre (steam pre-treatment at 210° C. for 5 min), dry matter 31.0% (SECS).
# as §2
# [3] = Isoelectric focusing (PhastSystem), pI of purified protein; format: physicochemical; details: IEF gel
# Procedure: The sample was dissolved in water and applied to a Superdex 75 HR 10/30 gel filtration column equilibrated with 20 mM sodium phosphate pH 6.0, containing 0.15 M NaCl. Fractions were collected and those containing endoglucanase activity were combined. The protein eluate was judged to be pure by SDS-polyacrylamide gel electrophoresis and the molecular mass was evaluated on the basis of molecular mass standards (prestained SDS-PAGE standards, Broad Range, Bio-Rad) to be 54 kDa. The pI of the purified protein, designated as Ct EG—54 was determined with PhastSystem (Pharmacia) to be ca 5.5.
# The sample was applied to a Sephacryl S-100 HR 26/60 gel filtration column equilibrated with 50 mM sodium acetate buffer pH 5.0, containing 0.05 M NaCl. The protein fraction containing endoglucanase activity was eluted from the column with a retention volume corresponding to a molecular weight of 16 kDa. Collected fractions were combined, concentrated and gel filtration was repeated. The protein eluate was judged to be pure by SDS-polyacryl amide gel electrophoresis and the molecular weight was evaluated to be 28 kDa. The pI of the purified protein, designated as Ta EG—28, was determined in an IEF gel (PhastSystem, Pharmacia) to be about 3.5. The specific activity of Ta EG—28 at 50° C. was determined to be 4290 nkat/mg (procedure of IUPAC 1987, using CMC as substrate).
# The active material from the anion exchange chromatography was applied to a Sephacryl S-300 HR 26/60 column equilibrated with 20 mM sodium phosphate pH 6.5, containing 0.15 M NaCl. The protein with β-glucosidase activity was eluted with a retention volume corresponding to a molecular weight of 243 kDa. The protein was judged to be pure by SDS-polyacrylamide gel electrophoresis and the molecular weight was evaluated to be 101 kDa. The pI of the purified protein, designated as At βG—101, was determined in an IEF gel (PhastSystem, Pharmacia) to be in the area of 5.6-4.9. The specific activity of At βG—101 at 50° C. was determined to be 1100 nkat/mg (using 4-nitrophenyl-β-D-glucopyranoside as substrate, Bailey and Linko, 1990).
# The active material from the cation exchange chromatography was applied to a Sephacryl S-300 HR 26/60 column equilibrated with 20 mM sodium phosphate pH 7.0, containing 0.15 M NaCl. The protein with β-glucosidase activity was eluted with a retention volume corresponding to a molecular weight of 294 kDa. […] The protein was judged to be pure by SDS-polyacrylamide gel electrophoresis and the molecular weight was evaluated to be 81 kDa, representing most likely the monomeric form of the protein. […] The specific activity of the purified protein, designated as Ta βG—81, at 50° C. was determined to be 600 nkat/mg using 4-nitrophenyl-β-D-glucopyranoside as substrate (Bailey and Linko, 1990). […]
# [4] = Hydrolysis with CBH enzyme mixtures, corn stover; format: biochemical; details: additional enzymes EGII, bG, 48 h, 45° C., pH 5.0
# Procedure: (§3) The performance of the purified recombinant cellobiohydrolases was evaluated in the hydrolysis studies with purified T. reesei enzymes. Hydrolysis was carried out with controlled mixtures of purified enzymes on several pre-treated substrates. […] In addition, pure T. reesei cellulases (purified as described by Suurnäkki et al., 2000) were used in the enzyme mixtures. The cellobiohydrolases used in the experiment were:
# (§4) Each CBH/Cel7 to be tested (dosage 14.5 mg/g dry matter of substrate) was used either together with EGII/Cel5A of T. reesei (3.6 mg/g) or with a mixture containing T. reesei EGI/Cel7B (1.8 mg/g), EGII/Cel5A (1.8 mg/g), xylanase pI 9 (Tenkanen et al. 1992) (5000 nkat/g) and acetyl xylan esterase (AXE) (Sundberg and Poutanen, 1991) (250 nkat/g). All mixtures were supplemented with additional β-glucosidase from a commercial enzyme preparation Novozym 188 (176 nkat/g d.w.). Triplicate tubes containing the enzyme mixture and 10 mg (dry matter)/ml of the substrate suspended in 0.05 M sodium acetate were incubated in mixing by magnetic stirring at 45° C. for 48 h. Reference samples with inactivated enzymes and corresponding substrates were also prepared. The release of hydrolysis products was measured as reducing sugars with DNS method using glucose as standard (Table 30).
# Washed wet oxidized corn stover fibre (WOCS).
# [5] = Hydrolysis with CBH enzyme mixtures, spruce; format: biochemical; details: additional enzymes EGII, bG; 48 h, 45° C., pH 5.0
# Procedure: as §3, §4
# Washed steam pre-treated spruce fibre (impregnation with 3% w/w SO2 for 20 min, followed by steam pre-treatment at 215° C. for 5 min), dry matter 25.9% (SPRUCE).
# [6] = Hydrolysis with CBH enzyme mixtures, willow; format: biochemical; details: additional enzymes EGII, bG, 48 h, 45° C., pH 5.0
# Procedure: as §3, §4
# Washed steam pre-treated willow fibre (pre-treatment for 14 min at 210° C.), dry matter 23.0% (WILLOW).
# [7] = Hydrolysis with CBH enzyme mixtures, Avicel; format: biochemical; details: additional enzymes EGII, bG; 48 h, 45° C., pH 5.0
# Procedure: as §3, §4
# Crystalline cellulose (Avicel)
# [8] = with CBHI and CBHII of T. reesei
# [9] = with T. aurantiacus Cel7A + Tr CBD
molecule,measurement,setting,value
B1,"Hydrolysis products as reducing sugars, SPRUCE",[1]; [8],3.8 mg/mL
same,"Hydrolysis products as reducing sugars, SPRUCE",[1]; [9],3.2 mg/mL
same,"Hydrolysis products as reducing sugars, SECS",[2]; [8],3.5 mg/mL
B2,pI of the purified protein,[3],~5.5
B3,"Hydrolysis products as reducing sugars, WOCS","[4]; EGI, XYL, AXE",7.2 mg/mL
same,"Hydrolysis products as reducing sugars, WOCS",[4],4.6 mg/mL
same,"Hydrolysis products as reducing sugars, SPRUCE",[5],3.7 mg/mL
same,"Hydrolysis products as reducing sugars, WILLOW","[6]; EGI, XYL, AXE",5.6 mg/mL
same,"Hydrolysis products as reducing sugars, WILLOW",[6],3.7 mg/mL
same,"Hydrolysis products as reducing sugars, Avicel",[7],4.9 mg/mL
B4,"Hydrolysis products as reducing sugars, SPRUCE",[1]; [8],3.5 mg/mL
same,"Hydrolysis products as reducing sugars, SECS",[2]; [8],4.6 mg/mL
same,"Hydrolysis products as reducing sugars, SECS",[2]; [9],4.2 mg/mL
